Data published in paper doi:10.1101/2024.11.07.622398.

How the values were obtained:
bovine UBA7 (bovine) [1] = molecular target: bovine UBA7 (bovine)
bovine UBA7 (bovine) [2] = test: SEC-MALS
[3] = molecular target: His-GST-tagged bovine UBA7(C597A) (bovine); test: BLI
[4] = molecular target: His-GST-tagged UBA7(U1) chimera (bovine | human) (UniProt P22314); test: BLI
[5] = molecular target: His-GST-tagged bovine UBA7(eCCL) (bovine); test: BLI

Chain of His-GST-tagged UBA7(U1) chimera (bovine | human) (P22314 whole entry, change not shown): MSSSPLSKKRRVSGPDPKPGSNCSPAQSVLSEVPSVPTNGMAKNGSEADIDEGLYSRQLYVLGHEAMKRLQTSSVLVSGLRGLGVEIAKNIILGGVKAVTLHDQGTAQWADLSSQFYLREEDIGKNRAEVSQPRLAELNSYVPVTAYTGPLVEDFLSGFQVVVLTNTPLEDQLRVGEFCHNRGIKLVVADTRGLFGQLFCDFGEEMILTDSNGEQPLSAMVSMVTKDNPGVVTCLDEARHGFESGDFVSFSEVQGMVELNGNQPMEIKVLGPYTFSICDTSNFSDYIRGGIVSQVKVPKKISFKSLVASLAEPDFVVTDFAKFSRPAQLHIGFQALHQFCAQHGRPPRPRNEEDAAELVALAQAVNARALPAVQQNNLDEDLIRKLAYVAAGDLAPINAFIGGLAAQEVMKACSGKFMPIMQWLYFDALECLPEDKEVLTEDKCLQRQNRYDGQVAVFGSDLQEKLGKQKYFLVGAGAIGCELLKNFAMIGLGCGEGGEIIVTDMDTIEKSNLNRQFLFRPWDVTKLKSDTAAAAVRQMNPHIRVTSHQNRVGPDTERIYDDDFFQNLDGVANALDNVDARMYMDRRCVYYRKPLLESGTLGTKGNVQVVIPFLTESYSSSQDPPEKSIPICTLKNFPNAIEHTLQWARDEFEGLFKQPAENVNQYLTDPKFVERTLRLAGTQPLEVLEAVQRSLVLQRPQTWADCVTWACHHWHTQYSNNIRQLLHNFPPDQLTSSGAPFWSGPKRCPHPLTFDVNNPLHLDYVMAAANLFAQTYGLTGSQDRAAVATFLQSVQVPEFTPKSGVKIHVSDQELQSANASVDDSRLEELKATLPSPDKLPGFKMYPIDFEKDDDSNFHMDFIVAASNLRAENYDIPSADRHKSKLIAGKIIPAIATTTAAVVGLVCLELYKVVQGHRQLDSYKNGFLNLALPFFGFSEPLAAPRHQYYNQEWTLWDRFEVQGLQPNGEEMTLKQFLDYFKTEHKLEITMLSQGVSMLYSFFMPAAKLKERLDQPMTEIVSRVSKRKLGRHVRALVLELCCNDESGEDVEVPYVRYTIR

Substance | KM of disulfide complex formation (UBA7 titrated with UBE2L6, SDS-PAGE kinetics) (bovine UBA7 (bovine) [1]) | stoichiometry N (bovine UBA7 (bovine) [2]) | Kd [3] | Kd [4] | Kd [5]
bovine UBE2L6 (from UniProt A5PJC4 1-153) (enzyme) | 1.3 µM | 1 | 1200 nM |  | 
bovine UBE2L6(C86A) (from UniProt A5PJC4 1-153) (enzyme) |  |  |  | 48 µM | 4 µM
